Measurements: patent WO2018224439A1 (dated 2018)

Assays:
human serum albumin [1] = biological target: T1, human serum albumin (human, UniProt P02768 25-609); test: SPR; sc02 against sc01; this end fits human SA pH 5.5 in Table 3
T1 construct: Coupled by amine chemistry to the SPR chip; also called HSA; human SA

cynomolgus serum albumin = biological target: T2, cynomolgus serum albumin (cynomolgus, UniProt A2V9Z4 25-608); test: SPR; sc02 against sc01; this end fits cynomolgus SA pH 5.5 in Table 3
T2 construct: also called cynomolgus SA

human serum albumin [2] = biological target: T1, human serum albumin; test: SPR; sc02 against sc01

Row | fold improvement of affinity (STR graft over CDR graft) (human serum albumin [1]) [fold] | fold improvement of affinity (STR graft over CDR graft) (cynomolgus serum albumin) [fold] | fold improvement of affinity (STR graft over CDR graft) (human serum albumin [2]) [fold] | Binder
1 | 20 to 300 | 20 to 300 |  | 19-01-H04-sc02 (scFv, V domains shown, Humanized scFv (STR graft); also called 19-01-H04-sc02 STR; 19-01-H04-SC02 STR) VH: EVQLVESGGGLVQPGGSLRLSCAASGFSLSSNAMGWVRQAPGKGLEYIGIISVGGFTYYASWAKGRFTISRDNSKNTVYLQMNSLRAEDTATYFCARDRHGGDSSGAFYLWGQGTLVTVSS VL: DIQMTQSPSSLSASVGDRVTITCQSSESVYSNNQLSWYQQKPGQPPKLLIYDASDLASGVPSRFSGSGSGTDFTLTISSLQPEDFATYYCAGGFSSSSDTAFGGGTKLTVLG
2 |  |  | ~3 | 23-13-A01-sc02 (scFv, V domains shown, Humanized scFv (STR graft); also called 23-13-A01-sc02 STR; 23-13-A01-SC02 STR) VH: EVQLVESGGGLVQPGGSLRLSCAASGFSFSSSYWICWVRQAPGKGLEWVGCVFTGDGTTYYASWAKGRFTISRDNSKNTVYLQMNSLRAEDTATYFCARPVSVYYYGMDLWGQGTLVTVSS VL: DVVMTQSPSSLSASVGDRVTITCQASQIISSRSAWYQQKPGQPPKLLIYQASKLASGVPSRFSGSGSGTDFTLTISSLQPEDFATYYCQCTYIDSNFGAFGGGTKLTVLG
